Here are results for four molecules from PMC3918674 (Journal of molecular biology, 2013).

Data set [1] deals with the molecule itself. The data set is described as follows: SEC. (Size exclusion chromatography separates by hydrodynamic size, large species first.)
For data set [2], the target named is ClpAP complex (hexameric ClpA associated with tetradecameric ClpP) (Escherichia coli, UniProt P0ABH9 1-758; P0A6G7 15-207). The data set is described as follows: single-turnover stopped-flow fluorescence.

Where no end group is shown, it is not given here.

Chain of ClpAP complex (hexameric ClpA associated with tetradecameric ClpP) (P0ABH9 whole entry, chain 1 of 2): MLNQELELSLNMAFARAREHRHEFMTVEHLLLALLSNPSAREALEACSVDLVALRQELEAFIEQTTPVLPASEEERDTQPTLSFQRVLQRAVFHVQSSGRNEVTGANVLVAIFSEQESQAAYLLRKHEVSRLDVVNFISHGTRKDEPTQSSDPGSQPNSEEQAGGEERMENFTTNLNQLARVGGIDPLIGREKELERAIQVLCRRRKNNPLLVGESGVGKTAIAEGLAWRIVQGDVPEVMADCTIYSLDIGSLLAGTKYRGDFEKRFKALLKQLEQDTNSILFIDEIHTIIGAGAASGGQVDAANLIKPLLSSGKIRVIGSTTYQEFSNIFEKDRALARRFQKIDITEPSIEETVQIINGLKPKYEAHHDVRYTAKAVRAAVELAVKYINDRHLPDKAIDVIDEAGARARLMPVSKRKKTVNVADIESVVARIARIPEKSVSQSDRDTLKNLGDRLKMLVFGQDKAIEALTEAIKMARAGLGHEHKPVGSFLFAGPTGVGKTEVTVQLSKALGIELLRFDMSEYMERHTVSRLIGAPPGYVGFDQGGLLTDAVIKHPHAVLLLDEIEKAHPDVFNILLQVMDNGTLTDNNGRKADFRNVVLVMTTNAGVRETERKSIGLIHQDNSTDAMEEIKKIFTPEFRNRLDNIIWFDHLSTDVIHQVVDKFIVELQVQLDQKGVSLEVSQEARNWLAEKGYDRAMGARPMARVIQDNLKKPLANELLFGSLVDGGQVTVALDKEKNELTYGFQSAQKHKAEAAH
Chain of ClpAP complex (hexameric ClpA associated with tetradecameric ClpP) (P0A6G7 15-207, chain 2 of 2): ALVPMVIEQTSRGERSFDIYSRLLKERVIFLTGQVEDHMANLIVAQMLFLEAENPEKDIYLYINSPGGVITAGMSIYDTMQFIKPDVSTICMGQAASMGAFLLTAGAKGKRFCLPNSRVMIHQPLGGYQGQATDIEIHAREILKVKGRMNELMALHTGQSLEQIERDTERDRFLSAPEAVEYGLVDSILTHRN

B1: Escherichia coli ClpP (enzyme)
chain: not shown
What is called stoichiometry N is the number of molecules, sites or subunits per partner or assembly. For B1, in data set [1], the “stoichiometry N” value came to 7.
On to C(fluorescein‑5‑maleimide)TGEVSFQAANTKSAANLKVKELRSKKKLAANDENYALAA [N-Cys-40 polypeptide translocation substrate], for which, in data set [2], the binding result is recorded as “binds”.
Regarding C(fluorescein‑5‑maleimide)TKSAANLKVKELRSKKKLAANDENYALAA [N-Cys-30 polypeptide translocation substrate], the binding result in data set [2] is recorded as “binds”.
As to C(fluorescein‑5‑maleimide)LILHNKQLGMTGEVSFQAANTKSAANLKVKELRSKKKLAANDENYALAA [N-Cys-50 polypeptide translocation substrate], the binding result in data set [2] is listed as “binds”.
